97 sequences from the supplement of paper PMC6755084 can be followed below.

The subject of this data set is F1*sub RNA substrate (template-directed ligation). In words: fraction ligated after 30 min (ligated reads / total reads); higher = more ligase activity; sequences stand for … in GAGACCGCAACTGAAAAGTTGT…AGTTCTGCACGTAGAAGCAAAAGGC
The conditions noted are these: 42 °C. Put shortly:
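The ligase ribozyme variants were produced by PCR amplification of oligo-pool templates, T7 transcription and purification on gel. Their ligated and unligated forms were gel-separated, then reverse transcribed with barcoded primers before MiSeq sequencing. Core bases were filtered at a quality of ≥20, and fraction ligated per variant was ligated reads over total reads.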
Regarding “TATCACTTGTCGTAAACCTTTGATGGGTTGA [3d2068]”, the fraction ligated is 0.672.
With “TATCACTTGTCGTAAACCTTTGGAGGGTTGA [3d2070]” the figure was 0.15; with “TATCACTTGTCGTAAACCTTTGGATGGGTTA [3d2072]”, 0.746.
“TATCACTTGTCGTAAACCTTTGGATGGGTTG [3d2073]” came in with a fraction ligated of 0.793.
The figure for “TATCACTTGTCGTAAACCTTTGGATGGGTTGA [2d235]” is 0.785.
With “TATCACTTGTCGTAAACCTTTGGATGGTTGA [3d2071]” the figure was 0.256; with “TATCACTTGTCGTAAACCTTTGGTGGGTTGA [3d2069]”, 0.182.
With “TATCACTTGTCGTAAACTTTGGATGGGTTGA [3d1993]”, the fraction ligated was 0.804.
The figure for “TATCACTTGTCGTAACACTTGGATGGGTTGA [3d1996]” is 0.773; for “TATCACTTGTCGTAACACTTTGATGGGTTGA [3d1997]” it is 0.464; for “TATCACTTGTCGTAACACTTTGGAGGGTTGA [3d1999]” it is 0.0382.
For the sequence “TATCACTTGTCGTAACACTTTGGATGGGTTA [3d2001]”, the fraction ligated was 0.545.
The figure for “TATCACTTGTCGTAACACTTTGGATGGGTTG [3d2002]” is 0.806; for “TATCACTTGTCGTAACACTTTGGATGGGTTGA [2d222]” it is 0.796; for “TATCACTTGTCGTAACACTTTGGATGGTTGA [3d2000]” it is 0.0413.
On to “TATCACTTGTCGTAACACTTTGGTGGGTTGA [3d1998]”, for which the fraction ligated was 0.0145.
The figure for “TATCACTTGTCGTAACATTTGGATGGGTTGA [3d1995]” is 0.84; for “TATCACTTGTCGTAACCTTTGGATGGGTTGA [3d1994]” it is 0.821; for “TATCACTTGTCGTAAGAACTGGATGGGTTGA [3d2159]” it is 0.802.
As for “TATCACTTGTCGTAAGAACTTGATGGGTTGA [3d2160]”, the fraction ligated turned out to be 0.788.
The figure for “TATCACTTGTCGTAAGAACTTGGAGGGTTGA [3d2162]” is 0.0364; for “TATCACTTGTCGTAAGAACTTGGATGGGTTA [3d2164]” it is 0.404; for “TATCACTTGTCGTAAGAACTTGGATGGGTTG [3d2165]” it is 0.777.
Sequence “TATCACTTGTCGTAAGAACTTGGATGGGTTGA [2d255]” displayed a fraction ligated of 0.805.
For the sequence “TATCACTTGTCGTAAGAACTTGGATGGTTGA [3d2163]”, the fraction ligated came to 0.0536.
The figure for “TATCACTTGTCGTAAGAACTTGGTGGGTTGA [3d2161]” is 0.0804.
The figure for “TATCACTTGTCGTAAGAACTTTATGGGTTGA [3d2166]” is 0.067; for “TATCACTTGTCGTAAGAACTTTGAGGGTTGA [3d2168]” it is 0.0393; for “TATCACTTGTCGTAAGAACTTTGATGGGTTA [3d2170]” it is 0.09.
The figure for “TATCACTTGTCGTAAGAACTTTGATGGGTTG [3d2171]” is 0.726; for “TATCACTTGTCGTAAGAACTTTGATGGGTTGA [2d256]” it is 0.79; for “TATCACTTGTCGTAAGAACTTTGATGGTTGA [3d2169]” it is 0.0458.
Turning to “TATCACTTGTCGTAAGAACTTTGGAGGGTTA [3d2177]”, the fraction ligated was found to be 0.075.
With “TATCACTTGTCGTAAGAACTTTGGAGGGTTG [3d2178]” the figure was 0.0318.
With “TATCACTTGTCGTAAGAACTTTGGAGGGTTGA [2d258]” the figure was 0.0583; with “TATCACTTGTCGTAAGAACTTTGGAGGTTGA [3d2176]”, 0.0186.
With “TATCACTTGTCGTAAGAACTTTGGATGGGTT [3d2181]” the figure was 0.219; with “TATCACTTGTCGTAAGAACTTTGGATGGGTTA [2d260]”, 0.799; with “TATCACTTGTCGTAAGAACTTTGGATGGGTTG [2d261]”, 0.81.
“TATCACTTGTCGTAAGAACTTTGGATGGTTA [3d2179]”: the fraction ligated came to 0.11.
With “TATCACTTGTCGTAAGAACTTTGGATGGTTG [3d2180]” the figure was 0.0734; with “TATCACTTGTCGTAAGAACTTTGGATGGTTGA [2d259]”, 0.139; with “TATCACTTGTCGTAAGAACTTTGGGGGTTGA [3d2172]”, 0.0507.
With “TATCACTTGTCGTAAGAACTTTGGTGGGTTA [3d2174]” the figure was 0.0479; with “TATCACTTGTCGTAAGAACTTTGGTGGGTTG [3d2175]”, 0.0265.
With “TATCACTTGTCGTAAGAACTTTGGTGGGTTGA [2d257]” the figure was 0.123.
Take “TATCACTTGTCGTAAGAACTTTGGTGGTTGA [3d2173]”: the fraction ligated was found to be 0.0396.
The figure for “TATCACTTGTCGTAAGAACTTTGTGGGTTGA [3d2167]” is 0.0101; for “TATCACTTGTCGTAAGAATTGGATGGGTTGA [3d2152]” it is 0.785.
Sequence “TATCACTTGTCGTAAGAATTTGATGGGTTGA [3d2153]” showed a fraction ligated of 0.757.
Sequence “TATCACTTGTCGTAAGAATTTGGAGGGTTGA [3d2155]” yielded a fraction ligated of 0.0724.
The figure for “TATCACTTGTCGTAAGAATTTGGATGGGTTA [3d2157]” is 0.765; for “TATCACTTGTCGTAAGAATTTGGATGGGTTG [3d2158]” it is 0.798; for “TATCACTTGTCGTAAGAATTTGGATGGGTTGA [2d254]” it is 0.8.
The figure for “TATCACTTGTCGTAAGAATTTGGATGGTTGA [3d2156]” is 0.208; for “TATCACTTGTCGTAAGAATTTGGTGGGTTGA [3d2154]” it is 0.135; for “TATCACTTGTCGTAAGACACGGATGGGTTGA [3d2231]” it is 0.231.
With “TATCACTTGTCGTAAGACACTGATGGGTTGA [3d2232]”, the fraction ligated worked out at 0.0313.
The figure for “TATCACTTGTCGTAAGACACTGGAGGGTTGA [3d2234]” is 0.00473; for “TATCACTTGTCGTAAGACACTGGATGGGTTA [3d2236]” it is 0.751; for “TATCACTTGTCGTAAGACACTGGATGGGTTG [3d2237]” it is 0.778.
The figure for “TATCACTTGTCGTAAGACACTGGATGGGTTGA [2d276]” is 0.776; for “TATCACTTGTCGTAAGACACTGGATGGTTGA [3d2235]” it is 0.0538.
With “TATCACTTGTCGTAAGACACTGGTGGGTTGA [3d2233]” the figure was 0.00438; with “TATCACTTGTCGTAAGACACTTATGGGTTGA [3d2238]”, 0.0156; with “TATCACTTGTCGTAAGACACTTGAGGGTTGA [3d2240]”, 0.00563.
For “TATCACTTGTCGTAAGACACTTGATGGGTTA [3d2242]”, the fraction ligated stood at 0.0227.
The figure for “TATCACTTGTCGTAAGACACTTGATGGGTTG [3d2243]” is 0.239; for “TATCACTTGTCGTAAGACACTTGATGGGTTGA [2d277]” it is 0.662.
With “TATCACTTGTCGTAAGACACTTGATGGTTGA [3d2241]” the figure was 0.0196.
The figure for “TATCACTTGTCGTAAGACACTTGGAGGGTTA [3d2249]” is 0.0115; for “TATCACTTGTCGTAAGACACTTGGAGGGTTG [3d2250]” it is 0.00522.
As to “TATCACTTGTCGTAAGACACTTGGAGGGTTGA [2d279]”, the fraction ligated was found to be 0.0154.
Consider “TATCACTTGTCGTAAGACACTTGGAGGTTGA [3d2248]”, for which the fraction ligated turned out to be 0.00668.
In turn, “TATCACTTGTCGTAAGACACTTGGATGGGTT [3d2253]” came in with a fraction ligated of 0.239.
With “TATCACTTGTCGTAAGACACTTGGATGGGTTA [2d281]” the figure was 0.756; with “TATCACTTGTCGTAAGACACTTGGATGGGTTG [2d282]”, 0.777.
With “TATCACTTGTCGTAAGACACTTGGATGGTTA [3d2251]” the figure was 0.0219.
The figure for “TATCACTTGTCGTAAGACACTTGGATGGTTG [3d2252]” is 0.036; for “TATCACTTGTCGTAAGACACTTGGATGGTTGA [2d280]” it is 0.0762; for “TATCACTTGTCGTAAGACACTTGGGGGTTGA [3d2244]” it is 0.0227.
Turning to “TATCACTTGTCGTAAGACACTTGGTGGGTTA [3d2246]”, the fraction ligated is 0.0114.
With “TATCACTTGTCGTAAGACACTTGGTGGGTTG [3d2247]” the figure was 0.0184; with “TATCACTTGTCGTAAGACACTTGGTGGGTTGA [2d278]”, 0.0691.
With “TATCACTTGTCGTAAGACACTTGGTGGTTGA [3d2245]” the figure was 0.012.
The figure for “TATCACTTGTCGTAAGACACTTGTGGGTTGA [3d2239]” is 0.00905; for “TATCACTTGTCGTAAGACACTTTAGGGTTGA [3d2256]” it is 0.0176.
The sequence “TATCACTTGTCGTAAGACACTTTATGGGTTA [3d2258]” came in with a fraction ligated of 0.0282.
With “TATCACTTGTCGTAAGACACTTTATGGGTTG [3d2259]” the figure was 0.0149.
With “TATCACTTGTCGTAAGACACTTTATGGGTTGA [2d283]” the figure was 0.0284.
The figure for “TATCACTTGTCGTAAGACACTTTATGGTTGA [3d2257]” is 0.0255.
Turning to “TATCACTTGTCGTAAGACACTTTGAGGGTTA [3d2265]”, the fraction ligated stood at 0.0074.
The figure for “TATCACTTGTCGTAAGACACTTTGAGGGTTG [3d2266]” is 0.00798; for “TATCACTTGTCGTAAGACACTTTGAGGGTTGA [2d285]” it is 0.00683.
With “TATCACTTGTCGTAAGACACTTTGAGGTTGA [3d2264]” the figure was 0.0133.
With “TATCACTTGTCGTAAGACACTTTGATGGGTT [3d2269]” the figure was 0.017; with “TATCACTTGTCGTAAGACACTTTGATGGGTTA [2d287]”, 0.167.
